According to US20250099635A1 (Janssen / Centocor, published 2025):

Target: T1, soluble human kallikrein related peptidase 2 (hK2) protein (human, UniProt P20151 19-261)
T1 construct: The stated signal peptide is left out here; also called soluble hK2; KLK2
Test: SPR; antibody captured by anti-Fc antibody, soluble hK2 injected; 1:1 Langmuir fit
Protocol: Affinity of selected hK2 antibodies for soluble hK2 was measured by surface plasmon resonance (SPR). […] Antibodies were captured on a sensor chip coated with an anti-Fc antibody followed by injection of soluble hK2 at various concentrations and specified association and dissociation times. Post dissociation, the surface was regenerated with an appropriate solution to prepare for the next interaction. Kinetic information (on-rate and off-rate constants) were extracted by fitting sensorgrams to the 1:1 Langmuir model. Binding affinity (KD) are reported as the ratio of rate constants (koff/kₒₙ).

T1 sequence (P20151 19-261): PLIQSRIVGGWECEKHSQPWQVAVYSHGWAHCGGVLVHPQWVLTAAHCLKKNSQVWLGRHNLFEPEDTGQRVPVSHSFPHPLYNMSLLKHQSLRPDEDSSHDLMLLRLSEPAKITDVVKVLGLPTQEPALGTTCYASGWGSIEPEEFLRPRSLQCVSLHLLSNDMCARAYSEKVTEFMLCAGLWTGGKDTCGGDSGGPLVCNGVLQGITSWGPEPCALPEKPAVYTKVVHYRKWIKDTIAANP

| Binder | Kd |
| --- | --- |
| KL2B467 (Fab) (Fab, V domains shown) VH: QVQLVESGGGVVQPGRSLRLSCAASGFTFSYYGMHWVRQAPGKGLEWVAFISYDGSNKYYADSVKGRFTISRDNSKNTLYLQMNSLRAEDTAVYYCAHLPYSGSYWAFDYWGQGTQVTVSS VL: QSVLTQPPSVSVAPGQTASITCGGDNIGSKSVHWYQQKPGQAPVLVVYDNSDRPSGIPERFSGSNSGTTATLTISRVEAGDEADYYCQVWDSSSDHPVVFGGGTKVTV | 0.078 nM |
| KL2B242 (Fab) (Fab, V domains shown) VH: QVQLQESGPGLVKPSETLSLTCTVSGGSISSYYWSWLRQPAGSGLEWIGRLYVSGFTNYNPSLKSRVTLSLDPSRNQLSLKLSSVTAADTAVYYCAGDSGNYWGWFDPWGQGTLVTVSS VL: SYELTQPPSVSVSPGETASITCSGDQLGENYACWYQQKPGQSPVLVIYQDSKRPSGIPERFSGSNSGNTATLTISGTQALDEADYYCQAWDNSIVVFGGGTKLTVL | 0.04 nM |
| KL2B30 (Fab) (Fab, V domains shown) VH: QVQLQESGPGLVKPSETLSLTCTVSGGSISSYYWSWIRQPPGKGLEWIGYIYYSGSTNYNPSLKSRVTISVDTSKNQFSLKLSSVTAADTAVYYCAGTTIFGVVTPNFYYGMDVWGQGTTVTVSS VL: DIQMTQSPSFLSASVGDRVTITCRASQGISSYLAWYQQKPGKAPKFLIYAASTLQSGVPSRFSGSGSGTEFTLTISSLQPEDFATYYCQQLNSYPLTFGGGTKVEIK | 0.46 nM |
| KL2B53 (Fab) (Fab, V domains shown) VH: EVQLVESGGGVVQPGRSLRLSCVASGFTFSSYDIHWVRQAPGKGLEWVAIISYDGSKKDYTDSVKGRFTISRDNSKNTLYLQMDSLRVEDSAVYSCARESGWSHYYYYGMDVWGQGTMVTVSS VL: DIVMTQSPSSLSASVGDRVTITCRASQDISNYLAWYQQKPGKVPKFLIYAASTLHSGVPSRFSGSGSGTDFTLTISSLQPEDVATYYCQKYNSAPYTFGQGTRLEIK | 0.08 nM |
| KL2B494 (Fab) (Fab, V domains shown) VH: QVQLVESGGGLVQPGGSLRLSCAASGFTFSHYAMSWVRQAPGKGLEWVSTIGGSGGSTYYADSVKGRFTISRDNSKNTLYLQMNSLRAEDTAVYYCAKPHIVMVTALLYDGMDVWGQGTMVTVSS VL: SSELTQPPSVSVAPGQTARITCGGNNIGSKSVHWYQQKPGQAPVLVVYDDSDRPSGIPERFSGSNSGNTATLTISRVEAGDEADYYCQVWDSSSDHVVFGGGTKLTVL | 0.053 nM |
